The text below walks through data of patent US20230071609A1 (Genentech, published 2023).

For assay [1], the target named is T1, endogenous human APOL1 (wild-type immortalized podocytes; also JHH-1 cells, kidney and liver tissue) (human, UniProt O14791 28-398).
T1 construct: whole, on cells; Cell or tissue and permeabilization are told under assay; also called podocyte APOL1; endogenous APOL1
T1 sequence (looked up): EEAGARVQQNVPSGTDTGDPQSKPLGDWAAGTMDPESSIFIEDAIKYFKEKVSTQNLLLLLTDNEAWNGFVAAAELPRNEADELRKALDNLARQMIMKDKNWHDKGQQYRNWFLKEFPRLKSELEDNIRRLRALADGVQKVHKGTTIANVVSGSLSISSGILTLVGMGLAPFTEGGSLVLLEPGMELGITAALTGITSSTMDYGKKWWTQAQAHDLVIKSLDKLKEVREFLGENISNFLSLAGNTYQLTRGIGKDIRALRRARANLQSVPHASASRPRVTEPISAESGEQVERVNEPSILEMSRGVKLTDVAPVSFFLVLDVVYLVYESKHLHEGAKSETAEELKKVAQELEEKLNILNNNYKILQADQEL
Nature of the assay: flow cytometry, live WT and iAPOL1-G0 podocytes. The method, then:
Cells were harvested with 5 mM EDTA in PBS, washed once with growth media and twice with PBS. Approximately 0.5×10⁶/m1 of cells resuspended in PBS were incubated with anti-APOL1 antibodies for 1 h on ice. Following two PBS washes, 2 μg/ml of Alexa488 anti-mouse or anti-rabbit (Invitrogen A11029 and A21206, respectively) was used for 1 h on ice for detection. Cells were washed twice in PBS and resuspended in PBS with 1 μg/ml propidium iodide. Signals were read in a FACSCalibur3 (Becton Dickinson), with the exception of FIG. 8A and FIG. 14, which used a FACSCelesta, and data was analyzed using FlowJo v8.4.5. Mean fluorescence intensities were plotted in PRISM v7 after subtraction of secondary antibody alone background. For low pH experiments, cells were incubated with the antibodies in the presence of PBS pH 7.0 or PBS pH 5.5 for an hour on ice and detected with secondary antibodies at neutral pH.
More importantly, there were also differential APOL1 accessibilities between serum APOL1 and kidney disease-relevant podocytes (FIG. 18B). Some antibodies bound surface APOL1 in WT and iAPOL1 podocytes (FIG. 6A, 6B), but not circulating APOL1 (as judged by lack of trypanolytic blockade, FIG. 6C) and vice versa. […] Conversely, 3.3B6 and 4.17A5 were among the top trypanolytic blockers, but recognized the podocyte surface relatively weakly. […]

The target in assay [2] is T2, endogenous APOL2 in human podocytes (human, UniProt Q9BQE5 1-337).
T2 construct: In podocyte lysates (western blot) or fixed, permeabilized podocytes; also called 36 kDa APOL2 band
T2 sequence (looked up): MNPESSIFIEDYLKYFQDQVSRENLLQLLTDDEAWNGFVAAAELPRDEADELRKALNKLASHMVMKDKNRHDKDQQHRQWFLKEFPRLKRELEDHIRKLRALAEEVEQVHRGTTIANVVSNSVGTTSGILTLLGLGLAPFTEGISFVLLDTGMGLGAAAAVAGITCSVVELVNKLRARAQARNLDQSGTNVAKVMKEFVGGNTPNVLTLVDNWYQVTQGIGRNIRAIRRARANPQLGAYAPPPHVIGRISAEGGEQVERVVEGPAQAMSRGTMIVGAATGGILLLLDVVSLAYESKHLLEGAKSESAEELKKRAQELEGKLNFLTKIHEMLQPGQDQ
Briefly: western blot of WT and APOL1 KO podocyte lysates. On the procedure: The results corroborate the IF cross-reactivities, except for APOL4 cross-reactivity, which appears to be conformationally sensitive. The 3.6D12 antibody continues to recognize APOL2 in the APOL1 KO podocytes (generated as described in Example 1). Note the 4.17A5 western is shown at a longer exposure than the others.
Following three TBST washes, anti-mouse (GE Healthcare NA931V, 1:3000) or anti-rabbit HRP (Jackson 711-036-152, 1:8000) was added as secondary antibody. After 1 h, membranes were washed and protein detected using ECL prime (Amersham RPN2232) exposed to MR film (Kodak). Anti-actin HRP-conjugated antibody (clone 13E5, Cell Signaling Technologies 5125S at 1:5000) or calnexin (Abcam Ab22595 at 1:1000) was used as a loading control. For peptide mapping, 2 μl of 1 mM peptides in DMSO were boiled in 5× sample buffer and loaded on 10% Tris-Glycine gel and run using MES buffer. Cell pellets of Sf9 lysates were lysed in native RIPA (NP-40) lysis buffer and run on 10% Tris-Glycine gels.

For assay [3], the target named is T3, native full length untagged APOL1-G0 (iAPOL1-CHO, construct a) (human, UniProt O14791 28-398).
T3 construct: Also used as CHO lysate in western blots; also called iAPOL1-G0; WT iAPOL1-G0
T3 sequence: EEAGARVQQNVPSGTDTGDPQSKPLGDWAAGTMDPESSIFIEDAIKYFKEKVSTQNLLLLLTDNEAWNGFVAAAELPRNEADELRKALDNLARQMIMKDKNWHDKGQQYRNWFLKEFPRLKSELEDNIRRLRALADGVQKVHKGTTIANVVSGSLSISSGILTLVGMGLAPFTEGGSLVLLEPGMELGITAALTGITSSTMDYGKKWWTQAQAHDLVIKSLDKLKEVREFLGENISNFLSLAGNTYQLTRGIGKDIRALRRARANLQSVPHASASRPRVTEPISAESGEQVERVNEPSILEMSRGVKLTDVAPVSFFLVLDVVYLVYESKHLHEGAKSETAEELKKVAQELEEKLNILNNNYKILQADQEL
Briefly: immunofluorescence, PFA-fixed permeabilized iAPOL1-CHO cells. From the text: APOL2 is shown stained with 3.6D12 (a mAb to the N-terminal pore-forming domain (PFD)), although similar results were obtained with the other 43 APOL2-cross reactors (all to the PFD, data not shown). […] APOL1 is shown stained with PFD mAb 3.7D6, membrane-addressing domain (MAD) mAb 3.3A8, or SRA-interacting domain (SRA-ID) mAb 3.1C1, each detected with Alexa488 anti-mouse (see Example 1 below for epitope mapping), although similar results were obtained with all the other APOL1-specific antibodies to all three domains (data not shown). The reticular ER pattern persists in digitonin (plasma membrane only)-permeabilized cells for APOL2, but not APOL1, indicating APOL2 is on the cytoplasmic face of the ER, while APOL1 is inside. The nuclear membrane signal for APOL1 with digitonin is also seen without detergent in some cells since PFA semi-permeabilizes the nuclear membrane (data not shown). With digitonin, some of the more sensitive antibodies, including the PFD (3.7D6) and SRA-ID (3.1C1) antibodies shown here (but not MAD antibody 3.3A8), additionally detected APOL1 on the plasma membrane (arrowhead), which is topologically equivalent to the ER lumen.
Cells were plated on LabTekII (Nalge Nunc 154534) slides and fixed at 70-100% confluency. For mAb screening, cells were fixed/permeabilized for 5 min in −20° C. methanol (EMD MX0485-6). […]

B1: antibody 4.17A5 (antibody, V domains shown)
VH: QVQLQQSGPELLKPGASVKISCKGSGYAFSNSWINWVKLRPGQGLEWIGRIYPGDGDTKYNGKFKGKATLTADKSSSTAHMQLRSLTSVDSAVYFCARFPFGKYEGPGAMDYWGQGTSVTVSS
VL: DIQMTQTTSSLSASLGDRVTISCRASQDISSYLNWYQQKPDGTIKLLIYYTSRLHSGVPSRFSGSGSGTDFSLTISNLEQEDIATYFCQQGNTLPYTFGGGTKLEIKR
notes: Mouse mAb (Method #4), cloned as murine IgG2a LALAPG; also called mAb 4.17A5
Regarding B1, the binding result in assay [1] is given as “binds”.

B2: antibody 3.6D12 (antibody, V domains shown)
VH: EVMLVESGGGLVRPGGSLKLSCTASGFTFSRCAMSWVRQTPEKRLEWVSAISRDSTYTYYSDSVKGRFTVSRDNAKNTLYLQMSSLRSEDTAMYYCARQIDDYYVDALDYWGQGTSVTVSS
VL: DVQITQSPSYLAASPGETITINCRASKIISKYLAWYQEKPGKTIKLLIYSGFTLQSGIPSRFSGSGSGTDFTLTISSLEPEDFAMYYCQQHNEYPLTFGAGTKLEIKR
notes: Mouse mAb (Method #3), cloned as murine IgG2a LALAPG; Early screens used hybridoma-purified antibody; also called mAb 3.6D12
With B2, the binding result in assay [2] is reported as “binds”.

B3: antibody 3.1C1 (antibody, V domains shown)
VH: QVQLQQSGPELVKPGASVRISCKASGYTFTNYFIHWVKQRPGQGLEWIGWINPGNLNTKYTEEFKGKATLTADKSSSTAYIQLNSLTSEDSAVYFCVNGNPFVYWGQGTLVTVSA
VL: DIVMTQSPSSLTVIAGEKVTLNCKSSQSLLNSGNQKKYLTWLQQKPGQPPKLLIYWTSTRDSGVPDRFTGSGSGTDFTLTISSVQAEDLAVYYCQNDYSYPLTFGAGTKLEIKR
notes: Mouse mAb, cloned as murine IgG2a LALAPG; not written separately; also called SRA-ID mAb 3.1C1
On to B3, for which the binding result in assay [3] is given as “binds”.
